Consider 21 sequences from the DeepSol protein solubility set.

The data set in a line: soluble on expression in E. coli; label from the status in PepcDB or PDB records.
Turning to “MLRPPMTKLVISNRESHRECEQVLQIGECAIVRSSSGEPWQLLNNGNSDSIDYALLQDILYEGYRLSTIYNIKSHTKSMKRLRRKLASIFSNSNFLLPLSKDGSSSSSQPHFYLSPSNSSLFDARKSSRSRGAVIKSPSTINIEKNRHSSNSGENQKMRLNLSMSTGNLCRAGVVRTPYPTSKQLHFDNDDGDEEDDTDDEGEADLVSIKTRSGRRNVLKSPPPPERIPSSMGASDAEEIDIKSHMKPLSVKIPANIFKTPTLDIPVDDDAEIDADVFPLPPPTPVNLKHGLFSIPSGRNSESARSRQTKRSPFGSVTSRTSSLDRRMSLSCLEDTSNYQKTQYLVFPLRTSSKKPYLLKFPEDMQEEDEKHNGSVWGSDTSLEEEIKV”, the “soluble on expression in E. coli” value is reported as “not soluble”.

Turning to “GSSHHHHHHSSGLVPRGSHMRGQRGEVEQMKSCLRVLSQPMPPTAGEAEQAADQQEREGALELLADLCENMDNAADFCQLSGMHLLVGRYLEAGAAGLRWRAAQLIGTCSQNVAAIQEQVLGLGALRKLLRLLDRDACDTVRVKALFAISCLVREQEAGLLQFLRLDGFSVLMRAMQQQVQKLKVKSAFLLQNLLVGHPEHKGTLCSMGMVQQLVALVRTEHSPFHEHVLGALCSLVTDFPQGVRECREPELGLEELLRHRCQLLQQHEEYQEELEFCEKLLQTCFSSPADDSMDR”, the “soluble on expression in E. coli” value is reported as “soluble”.

With “MEGSSSTIARKTWELENSILTVDSPDSTSDNIFYYDDTSQTRFQQEKPWENDPHYFKRVKISALALLKMVVHARSGGTIEIMGLMQGKTDGDTIIVMDAFALPVEGTETRVNAQDDAYEYMVEYSQTNKLAGRLENVVGWYHSHPGYGCWLSGIDVSTQRLNQQHQEPFLAVVIDPTRTVSAGKVEIGAFRTYSKGYKPPDEPVSEYQTIPLNKIEDFGVHCKQYYSLDVTYFKSSLDSHLLDLLWNKYWVNTLSSSPLLGNGDYVAGQISDLAEKLEQAESHLVQSRFGGVVPSSLHKKKEDESQLTKITRDSAKITVEQVHGLMSQVIKDELFNSMRQSNNKSPTDSSDPDPMITY”, the “soluble on expression in E. coli” value was “soluble”.

Take “SNTKKEIIWYKEKAQKTNYSVVYIHGFGASKNEIYPVPNNIAKALNANIFFTRLKGHGINNKNAFRGITTQDWLRDIDEAINIGKLIGDKLVLIGTSNGGTASIWALANYPNEINSAVLISPNIFPYDKRTNIVYYPWGRQIAYLITGGYNKFETKEYKRKEHPTIKSHSSRVQHVDAIIAMMGLVTLLNSYNFNEIKIPLIITHTPNDHTVDPIKINEFIKNYGGEKKDIPIILLENSHAHLPIGNQSYKSAQNTSYFTKYVFDFINKINK”: the “soluble on expression in E. coli” value was “not soluble”.

For the sequence “MKIVAIGAIPFSIPYTKPLRFASGEVHAAEHVLVRVHTDDGIVGVAEAPPRPFTYGETQTGIVAVIEQYFAPALIGLTLTEREVAHTRMARTVGNPTAKAAIDMAMWDALGQSLRLSVSEMLGGYTDRMRVSHMLGFDDPVKMVAEAERIRETYGINTFKVKVGRRPVQLDTAVVRALRERFGDAIELYVDGNRGWSAAESLRAMREMADLDLLFAEELCPADDVLSRRRLVGQLDMPFIADESVPTPADVTREVLGGSATAISIKTARTGFTGSTRVHHLAEGLGLDMVMGNQIDGQIGTACTVSFGTAFERTSRHAGELSNFLDMSDDLLTVPLQISDGQLHRRPGPGLGIEIDPDKLAHYRTDN”, the “soluble on expression in E. coli” value is given as “soluble”.

Consider “MNAPIEPHRFTLEPFEAHRFANLCGQLDEHLRLIEQRLDIEIRNRGNQFELIGETTQTRSAENLLRRLYRETKGTELTPDMVHLFLQESGVDGLDNHPAAEVGVSLRTKKGMIRPRGLNQQRYVKEVLSNDINFGIGPAGTGKTYLAVACAVDALEREQIRRILLVRPAVEAGEKLGFLPGDLAQKIDPYLRPLYDALYEMLGFEYVAKLIEKQVIEVAPLAYMRGRTLNNSFIILDESQNTTVEQMKMFLTRIGFGSTAVITGDITQVDLPKGTRSGLTHVIDVLKDVPGISFTHFKPKDVVRHPLVQRIVEAYERFDDQLSDGPSGNNGYSRDKNRNA”, for which the “soluble on expression in E. coli” value was “not soluble”.

Regarding “MGHHHHHHSHAFDLTVPTTNQFLLQYLRRQGVCVRTENLAKYVAELSLLEADPFLKYLPSLIAAAAFCLANYTVNKHFWPETLAAFTGYSLSEIVPCLSELHKAYLDIPHRPQQAIREKYKASKYLCVSLMEPPAVLLLQ”, the “soluble on expression in E. coli” value is listed as “not soluble”.

Turning to “MGSDKIHHHHHHMNNKKIFLFEFTVGTGLVPDELLAEGKLMFDILLNQFLDENYTVKTVLCEKIAKKYPKYNEINNLEIIVSDNYINSFKEGLDDSDFALAIAPEEDLILYNLTELIEESGCLNLGCEKSGVKIAGDKFLTYEAIKNAVNTPKTFPVKKYVVKNRLGCDSTHDTFDENYIVQEFIEGEPYSVIFIAKNKKFYPVCMNKQYIEKRYCGGEINIEHTLKEKAIIECKKTLEKIEGINGYVGVDLMINGEEISILEVNPRITTSICGIKSKPSIGKLLIDNALEKDIKFEVESCLKFKRNDFGFEFL”, the “soluble on expression in E. coli” value is “not soluble”.

On to “MAHHHHHHMSKSIAVIAAGAPAALVQAASAMVSKATGGAVKAMQATSAASNAIVVGMQAPRGVYACVAEPPSTASGPYAGVKTVVVRAILPRRAPDTMQVRDILDVYPASGITCEQETAEAVESFSKAAKVAVEKAKAMKATRVTLVMKPATKYERLNSLFRETCTKTIEAAGLSVETATTAAATNTLIMFPEKMSVVMVSDDPVCENVQYAFAGVVGGAHTTYYTDAGSTIHGGHSYKSVAMALAEELKSLGMKAEAAKVEAAAQKSPRNAAAAM”, for which the “soluble on expression in E. coli” value was “not soluble”.

For “AQHPPYCRNQPGKCQIPLQSLFDRATTVANYNSKLAGEMVNRFDEQYGQGINSESKVINCHTSSITTPNSKAEAINTEDKILFKLVISLLHSWDEPLHHAVTELANSKGTSPALLTKAQEIKEKAKVLVDGVEVIQKRIHPGEKNEPYPVWSEQSSLTSQDENVRRVAFYRLFHCLHRDSSKIYTYLRILKCRLTSCET”, the “soluble on expression in E. coli” value is listed as “soluble”.

For “SNAMKADILLVSHSKMITDGIKEMIEQMNASEEITIHSLGGTSDGSLGSDPMKIIDTINEADSDREFLIFADLGSAVLSSELAFDMLEEDQQKHYHLVDAPLVEGAFASAITAGVSDDLTQILAEAQNAGKKGWN”, the “soluble on expression in E. coli” value is given as “soluble”.

As for “MGSDKIHHHHHHSSDDKDEQPILVTNVVMPASGTVFKPGEKVTIMAKGFQDNDEIMFDIRWPLQDEVLHEGYAKGGRGVITEKTATSITFLAPGHWPASTTEILLRRSGQMMSLGKISVADGQAPKDFQLYGIINSRSNTHRPHAIEYINLEKPQTAEIVRLADNQDFSCVVNLPGSWSLSGVWTKDDRRTTGLYDLSMNYWEKPGADQLVTMGIATANSVFGVYQGGDRLFVKTVNVMPYTRMYVPEKPDYGFLLPEGMKAEALSRYPCIQMSDGNILCSADNGDGTFSPVVLNGQNIEEKSIYVGEPIEAVALIPFWIVKPVEGMGTAKYTRVGGYIVSKRNGATITEGDGTEFRLWNPTTKMLDEPFTTFPNAACLVATLVSDDFKKQELYVLFDGSRNGRLIYVYDLLKGSWESLYPGGGFPYSEIVLAR”, the “soluble on expression in E. coli” value is given as “not soluble”.

As for “MGSDKIHHHHHHMSVFATFASQTRIQAILVMQTALSVSSRLSLEPTGTDMPVIKGPDGLPFIPGSSIKGVVRFQVERILRTWDRRPDFWACDPFDAPCIPAKKKEQLLNDAETDQSFAETVWKESCTACRLFGSPWFAGRVAFRDAYLLNPEDLPTLTQIRDGVGIDRDLGTARSGIKYDFETVIPGARFGLEILAENLEEWEIGFLLTVLRLWEEGGIAIGGKTTRGPGWGKLQEIKIQRVGISNLMDYLLERKSSEVAATQFLQTFREWLKERGAGDA”, the “soluble on expression in E. coli” value is given as “not soluble”.

Regarding “MVKIHPDLTTSGAGEETSSPYLTTEQESFTIWMKSLVFNTNGCTVFDSKGNIIYRVDNYNSKSCREVYLMDLSGHVLFTLRRQKFGLFKTWEGYRSSSATVESTTKLEYFRVKNNVFQVPNKDSSSSYRVNAGSCRNDEQYCYKMVTRGSSLAIEDNCGKLLAEVKRKQSINGLKLGDDVLTMMVESQVDHSFIIGLVLAHSLINCIL”, the “soluble on expression in E. coli” value is “soluble”.

As for “MDNLKAELAQAKIDIDQLEKKQWETLEQLVMRDKLIEQCSLHTEILQKDFRESEARIIQLEQQLLEPGECGSELRATIKNQEELLKKQSEEIERCKEESRMLIQQKEEMENIHSEEIFGKNKTISNLRKQIDGDVERKKAKIRTLRKELCSADMNTGKMCRRAKRAEDRIAKLESDLEEERQKHVGQDISHILDQHNSTVMALEMQLANTQQEKATLNTSVEDLKLRTEEWKHNLLGQFEVLTANSKRECESKEEQIANHKREIMEKDSKIECLMELIQNSERSAEIQKMHDALREKDLKISELSEKLQGLLINQEGEADDTMIDQDDDNKSTHSEDSDGWDKINAI”, the “soluble on expression in E. coli” value is reported as “not soluble”.

Consider “GAERTIQLPKPDMNRAGLLMKALSERHSTREYASKALSNTDLSDLLWAANGINRSSEGKRTAPSAMNRQDIDIYVVLPQGTYLYDAKGHKLNLISEGDHRSAVAGGQAFVNNAPVSLVLVSDLSKLGDAKSNHVQLMGAMDAGIVSQNISLFCSAARLATVPRASMDLVRLKAALKLKDTQMPMMNHPVGYFK”, for which the “soluble on expression in E. coli” value is recorded as “soluble”.

Take “MDVRELAIQQLKTVLDPELGINVVDLGLIYDLKIEDGHINVLMTLTTPGCPLHDSIAGGVKRALEQIDGVRDVRVQVTWNPPWTPERMSEEALRQLGHFS”: the “soluble on expression in E. coli” value is given as “not soluble”.

For the sequence “MQLDIDGLKVLFPYDYVYPEQVLYMKEVKKALDARGHGLLEMPSGTGKTVSLLSLVLAYMISYPDKLDKLVYCSRTIPEIEKCVEEMKVLYDYWEKETGQPVAKITVAMSARKNLCVNEPVAALRFGNTVDSACQKLTASSARQKRAEDPTLEACDYFENFEAKSVPMQNGVWNLVKICEFWGTDKIEIFREKIQEI”, the “soluble on expression in E. coli” value was “not soluble”.

With “VIESMSDGYIVVDTSNSIVDVNRAVLELAGKTRKEVLGKNLTYLFGEGVELLCHTPEGDFGREISLKSGSEIKFFTVSVSPLMARNEPEGKLIMIHDIT”, the “soluble on expression in E. coli” value is reported as “not soluble”.

“MGSDKIHHHHHHMNRMAGCINDHLKRYGGLAAGREDEQKRYFAEKRLYALQIETTDACQQGCIFCYAGSTPREHHGLTSDEIRGLLRDAAALEIRAIDWLGGDPLVRPDWYELMQYARSLGLVNNVWTSGLPLKSKEVAARVHEVSEGGFVSVHVDSITPEVYAKLHRGGNPHFIEAIVEGVDNLLALGKPADMMINCITYTSLQGPEDAIKTMRWWFCEKGLRTCLTMFNPAGMGAEWRSLEPQLDEVQRVYTERDRIDYGGDNISIAAMDTDKYYCGTMATVTFTGDVTPCSVIREGVANIRTTPFRDIVARHLDTLVHAALHDVQNLPNPCNDCVNNAHCWGCRASAYHYSGDADGLDPKCWLIRTALTSDSFSVNNNLQKSTDEEIGLKP”: the “soluble on expression in E. coli” value is on record as “not soluble”.

As to “MIEFTALDDLSLLRESVSLECKLAQGRDGKGALPDDFWPTYSAMANTDGGIVILGVRERKGQFEVAGIENPDKLRTELFNHLNNRQKVSVNLLRDEDVRAWPVEGKTLLVVEIPRARRQQRPVYLRGNPLGGHTYRRLHEGDRPLPDEDVKRMLAEQVEDSRDERILPGYGLDDLHLESLRAYRQLFANRDPSHPWNALADQAFLRQIGGWRQHRETGEAGLTLAGLLMFGQWSSITEAVPLCFLDYQERPADYATTVQWLDRIVPDGTWSGNVFDFYRRVVGKLTADIKVPFVLKGDIRQDDTPTHKALREALVNTLVHADYTGRISVLVVKEPAGFVLRNPGGLRVPAQQALQGGMSDCRNRTMQQMFLMIGLGERAGSGMSRIVHGWRDLGHELHLRESYEPHEHSVLEMFWAKGRGATLASESSEESSEESSEETGKKILHLLREEPSLTASALARRLQLTPRAIEKQLEHHHHHH”, the “soluble on expression in E. coli” value was “not soluble”.
